Results taken from patent US8357523B2, “Beta-glucosidase variant enzymes and related polynucleotides” (Codexis, Inc., priority 2009, dated 2013).

Assay: High throughput cellobiose assay: fold improvement in cellobiase activity of CelA variants over a control enzyme (Tables 2A-2D, 3, 5, 6, 7)
Assay type: biochemical
Conditions: 3.3 g/l cellobiose, 55° C. and pH 5.3 (incubation overnight)

Row | Molecule | Fold improvement over Control Variant No. 94 from Table 2B
1 | 287 (protein) STAIAQEGAAPAAILHPEKWPRPATQRLIDPAVEKRVDALLKQLSVEEKVGQVIQGDIGTITPEDLRKYPLGSILAGGDSGPNGDDRAPPKEWLDLADAFYRVSLEKRPGHTPIPVLFGIDAVHGHGNIGSATIFPHNIALGMTRDPELLRRIGEVTAEEMAATGIDWTFAPALSVVRDDRWGRTYEGFSEDPEIVASYSAAIVEGVQGKYGSKDFMAPGRIVASAKHFLADGGTDQGRDQGDARISEDELIRIHNAGYPPAIDAGVLTVMASFSSWQGIKHHGHKQLLTDVLKGQMGFNGFIVGDWNAHGQVPGCTKFNCPTSLIAGLDMYMAADSWKQLYENTLAQVKDGTIPMARLDDAVRRILRVKVLAGLFEKPAPKDRPGLPGLETLGSPEHRAVGREAVRKSLVLLKNDKGTLPLSPKARVLVAGDGADNIGKQSGGWTISWQGTGNRNDEFPGATSILGGIRDAVADAGGSVEFDVAGQYKTKPDVAIVVFGEEPYAEFQGDVETLEYQPDQKQDLALLKKLKDQGIPVVAVFLSGRPMWVNPELNASDAFVAAWLPGTEGGGVADVLFTDKAGKVQHDFAGKLSYSWPRTAAQTTVNRGDADYNPLFAYGYGLTYKDKSKVGTLPEESGVPAEARQNAGIYFRAGALRLPGRFL | ++++ (++++ = 1.1 to 1.5 fold improvement over Control No. 3, Variant No. 94)
2 | 285 (protein) STAIAQEGAAPAAILHPEKWPRPATQRLIDPAVEKRVDALLKQLSVEEKVGQVIQGDIGTITPEDLRKYPLGSILAGGDSGPNGDDRAPPKEWLDLADAFYRVSLEKRPGHTPIPVLFGIDAVHGHGNIGSATIFPHNIALGMTRDPELLRRIGEVTAEEMAATGIDWTFAPALSVVRDDRWGRTYEGFSEDPEIVASYSAAIVEGVQGKYGSKDFMAPGRIVASAKHFLADGGTDQGRDQGDARISEDELIRIHNAGYPPAIDAGVLTVMASFSSWQGIKHHGHKQLLTDVLKGQMGFNGFIVGDWNAHDQVPGCTKFNCPTSLIAGLDMYMAADSWKQLYENTLAQVKDGTIPMARLDDAVRRILRVKVLAGLFEKPAPKDRPELPGLETLGSPEHRAVGREAVRKSLVLLKNDKGTLPLSPKARVLVAGDGADNIGKQSGGWTISWQGTGNRNDEFPGATSILGGIRDAVADAGGSVEFDVAGQYKTKPDVAIVVFGEEPYAEFQGDVETLEYQPDQKQDLALLKKLKDQGIPVVAVFLSGRPMWVNPELNASDAFVAAWLPGTEGGGVADVLFTDKAGKVQHDFAGKLSYSWPRTAAQTTVNRGDADYNPLFAYGYGLTYKDKSKVGTLPEESGVP | ++++ (++++ = 1.1 to 1.5 fold improvement over Control No. 3, Variant No. 94)
3 | 214 (protein) STLIAQEGAAPAAILHPEKWPRPATQRLIDPAVEKRVDALLKQLSVEEKVGQVIQGDIGTITPEDLRKYPLGSILAGGDSGPNGDDRAPPKEWLDLADAFYRVSLEKRPGHTPIPVLFGIDAVHGHGNIGSATIFPHNIALGMTRDPELLRRIGEVTAEEMAATGIDWTFAPALSVVRDDRWGRTYEGFSEDPEIVASYSAAIVEGVQGKYGSKDFMAPGRIVASAKHFLADGGTDQGRDQGDARISEDELIRIHNAGYPPAIDAGVLTVMASFSSWQGIKHHGHKQLLTDVLKGQMGFNGFIVGDWNAHDQVPGCTKFNCPTSLIAGLDMYMAADSWKQLYENTLAQVKDGTIPMARLDDAVRRILRVKVLAGLFEKPAPKDRPGLPGLETLGSPEHRAVGREAVRKSLVLLKNDKGTLPLSPKARVLVAGDGADNIGKQSGGWTISWQGTGNRNDEFPGATSILGGIRDAVADAGGSVEFDVAGQYKTKPDVAIVVFGEEPYAEFQGDVETLEYQPDQKQDLALLKKLKDQGIPVVAVFLSGRPMWVNPELNASDAFVAAWLPGTEGGGVADVLFTDKAGKVQHDFAGKLSYSWPRTAAQTTVNRGDADYNPLFAYGYGLTYKDKSKVGTLPEESGVP | ++++ (++++ = 1.1 to 1.5 fold improvement over Control No. 3, Variant No. 94)
